Numbered stars: 1 amine (or outer) side, 2 acyl side, 3 side chain; on linkers, the order of the positions; unused ones are H or OH. Bridge positions count the residues as written; N and C are the ends. Square brackets hold non-standard residues; d marks the D form. Primed or numbered codes have the meaning given here. * marks the point of attachment. thioacetal = thioacetal linkage between two cysteines (intrachain bond at the bracketed Cys); C20 diacid = O=C(O)CCCCCCCCCCCCCCCCCCC(=O)*; C16 diacid = O=C(O)CCCCCCCCCCCCCCC(=O)*; γGlu = O=C(O)[C@H](CCC(=O)[*:2])N[*:1]; 4Pal = N[C@@H](Cc1ccncc1)C(=O)O; thioacetal″ = not defined here; Aib = CC(C)(N)C(=O)O; βAla = NCCC(=O)O
T1: human NPRA (human, UniProt P16066 33-1061)
T1 sequence (looked up): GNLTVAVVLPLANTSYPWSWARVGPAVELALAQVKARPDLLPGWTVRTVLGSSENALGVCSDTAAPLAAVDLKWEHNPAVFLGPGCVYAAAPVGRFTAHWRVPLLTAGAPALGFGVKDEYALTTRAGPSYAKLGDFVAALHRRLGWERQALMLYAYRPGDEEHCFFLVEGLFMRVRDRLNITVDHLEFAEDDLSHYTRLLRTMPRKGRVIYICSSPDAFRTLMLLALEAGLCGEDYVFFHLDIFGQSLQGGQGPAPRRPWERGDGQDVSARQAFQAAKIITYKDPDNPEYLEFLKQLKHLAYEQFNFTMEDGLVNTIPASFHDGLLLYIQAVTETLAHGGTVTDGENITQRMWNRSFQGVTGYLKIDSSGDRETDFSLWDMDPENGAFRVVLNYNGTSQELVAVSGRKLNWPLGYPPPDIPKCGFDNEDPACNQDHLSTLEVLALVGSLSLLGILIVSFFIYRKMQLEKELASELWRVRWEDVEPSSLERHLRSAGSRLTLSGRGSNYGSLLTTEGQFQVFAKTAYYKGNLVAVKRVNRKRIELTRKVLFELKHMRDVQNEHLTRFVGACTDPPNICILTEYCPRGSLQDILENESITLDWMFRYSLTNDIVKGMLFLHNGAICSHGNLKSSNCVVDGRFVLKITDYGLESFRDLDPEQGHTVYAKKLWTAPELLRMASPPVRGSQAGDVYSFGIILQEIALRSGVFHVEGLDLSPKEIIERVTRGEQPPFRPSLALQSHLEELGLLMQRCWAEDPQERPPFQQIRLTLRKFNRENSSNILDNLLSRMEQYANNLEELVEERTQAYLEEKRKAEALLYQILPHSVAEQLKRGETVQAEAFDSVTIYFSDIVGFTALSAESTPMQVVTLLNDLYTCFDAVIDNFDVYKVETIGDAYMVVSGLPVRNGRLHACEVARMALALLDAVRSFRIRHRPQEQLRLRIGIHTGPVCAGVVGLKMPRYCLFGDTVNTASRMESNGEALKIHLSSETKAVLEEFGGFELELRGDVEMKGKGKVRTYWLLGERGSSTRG

T2: rat NPRA (rat, UniProt P18910 29-1057)
T2 sequence (looked up): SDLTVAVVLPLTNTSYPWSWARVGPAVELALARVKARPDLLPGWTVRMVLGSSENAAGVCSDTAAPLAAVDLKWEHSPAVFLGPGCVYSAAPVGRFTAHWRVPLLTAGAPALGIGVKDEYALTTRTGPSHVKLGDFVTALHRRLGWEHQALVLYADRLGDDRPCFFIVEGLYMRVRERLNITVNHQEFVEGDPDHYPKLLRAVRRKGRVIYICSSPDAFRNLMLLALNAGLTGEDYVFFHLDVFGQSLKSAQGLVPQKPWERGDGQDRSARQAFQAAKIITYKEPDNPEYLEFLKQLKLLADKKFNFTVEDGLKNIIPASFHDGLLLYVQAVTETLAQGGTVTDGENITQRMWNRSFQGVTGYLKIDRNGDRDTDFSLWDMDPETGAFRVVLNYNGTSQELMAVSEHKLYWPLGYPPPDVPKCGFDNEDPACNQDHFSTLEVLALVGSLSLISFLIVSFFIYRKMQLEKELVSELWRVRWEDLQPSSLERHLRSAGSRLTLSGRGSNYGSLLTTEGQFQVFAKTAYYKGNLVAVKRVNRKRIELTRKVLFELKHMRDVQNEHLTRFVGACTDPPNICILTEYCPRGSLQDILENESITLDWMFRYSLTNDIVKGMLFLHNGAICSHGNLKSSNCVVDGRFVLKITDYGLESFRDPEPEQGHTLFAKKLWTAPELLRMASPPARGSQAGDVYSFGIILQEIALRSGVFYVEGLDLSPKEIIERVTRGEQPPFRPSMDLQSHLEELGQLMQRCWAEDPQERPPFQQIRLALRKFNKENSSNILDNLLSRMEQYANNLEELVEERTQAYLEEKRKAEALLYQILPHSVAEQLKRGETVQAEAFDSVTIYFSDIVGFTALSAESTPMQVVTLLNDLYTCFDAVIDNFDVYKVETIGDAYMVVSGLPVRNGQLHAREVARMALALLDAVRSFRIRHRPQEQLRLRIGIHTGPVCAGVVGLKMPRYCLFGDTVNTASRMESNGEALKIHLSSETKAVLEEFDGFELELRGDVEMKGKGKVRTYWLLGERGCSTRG

B1: Example 4 (peptide)
peptide: EKXRSSCFGKRIDRIGHQSGLGCPSFRHGSPSSGAPPPS
modifications: HOOC-(CH2)18-CO-(γGlu)-EKEKEKG-PEG24-EK-βAla-RSS[CFGKRIDRIGHQSGLGC]PSFRHGSPSSGAPPPS-NH2; thioacetal linkage between the bracketed Cys
B2: Example 79 (peptide)
peptide: {C20 diacid}-[γGlu]EKEKEKGS[4Pal]RRSSCFGKRIDRIGHQSGLGCPSFRHGGKSSGAPPPS-NH2
modifications: bridge 15-31 via thioacetal
B3: Example 81 (peptide)
peptide: {C20 diacid}-[γGlu]EKEKEKGS[4Pal]RRSSCFGKRIDRIGHYSGLGCPSFRHGGKSSGAPPPS-NH2
modifications: bridge 15-31 via thioacetal″; reading uncertain
B4: Example 80 (peptide)
peptide: {C20 diacid}-[γGlu]EKEKEKGS[4Pal]RRSSCFGRKIDRIGHQSGLGCPSFRHGGKSSGAPPPS-NH2
modifications: bridge 15-31 via thioacetal
B5: Example 74 (peptide)
peptide: {C20 diacid}-[γGlu]EKEKEKGEK[βAla]RSSCFGGRIDRIGHYSGLGCPSFRHGGKSSGAPPPS-NH2
modifications: bridge 15-31 via thioacetal
B6: Example 69 (peptide)
peptide: XEKEKEKGSXRRSSCFGGRIDRIGHQSGLGCPSFRHGGPSSGAPPPS
modifications: not fully specified; HOOC-(CH2)18-CO-(γGlu)-EKEKEKGS-4Pal-RRSS[CFGGRIDRIGHQSGLGC]PSFRHGGPSSGAPPPS-NH2; thioacetal linkage between the bracketed Cys
B7: Example 70 (peptide)
peptide: {C20 diacid}-[γGlu]EKEKEKGEK[βAla]RSSCFGGRIDRIGHYSGLGCPSFRHGGPSSGAPPPS-NH2
modifications: bridge 15-31 via thioacetal
B8: Example 72 (peptide)
peptide: {C20 diacid}-[γGlu]EKEKEKGS[4Pal]RRSSCFGGRIDRIGHQSGLGCPSFRHGGKSSGAPPPS-NH2
modifications: bridge 15-31 via thioacetal
B9: Example 76 (peptide)
peptide: {C20 diacid}-[γGlu]EKEKEKGEK[βAla]RSSCFGGRIDRIGHYSGLGCPSFRHGGKSSGAPPPS-NH2
modifications: bridge 15-31 via thioacetal
B10: Example 75 (peptide)
peptide: SXRRSSCFGGRIDRIGHQSGLGCPSFRHGGKSSGAPPPS
modifications: HOOC-(CH2)18-CO-(γGlu)-EKEKEKG-PEG24-S-4Pal-RRSS[CFGGRIDRIGHQSGLGC]PSFRHGGKSSGAPPPS-NH2; thioacetal linkage between the bracketed Cys
B11: Example 82 (peptide)
peptide: B10 peptide
modifications: HOOC-(CH2)18-CO-(γGlu)-EKEKEKG-PEG12-S-4Pal-RRSS[CFGGRIDRIGHQSGLGC]PSFRHGGKSSGAPPPS-NH2; thioacetal linkage between the bracketed Cys
B12: Example 83 (peptide)
peptide: B10 peptide
modifications: HOOC-(CH2)18-CO-(γGlu)-EKEKEKG-(AEEA)4-S-4Pal-RRSS[CFGGRIDRIGHQSGLGC]PSFRHGGKSSGAPPPS-NH2; thioacetal linkage between the bracketed Cys
B13: Example 86 (peptide)
peptide: B10 peptide
modifications: HOOC-(CH2)18-CO-(γGlu)-EKEKEKG-(AEEA)6-S-4Pal-RRSS[CFGGRIDRIGHQSGLGC]PSFRHGGKSSGAPPPS-NH2; thioacetal linkage between the bracketed Cys
B14: Example 71 (peptide)
peptide: {C20 diacid}-[γGlu]EKEKEKGS[4Pal]RRSSCFGGRIDRIGHQSGLGCPSFRHGGPPS[Aib]KPPPK-NH2
modifications: bridge 15-31 via thioacetal
B15: Example 73 (peptide)
peptide: {C16 diacid}-[γGlu]EKEKEKGEK[βAla]RSSCFGGRIDRIGHYSGLGCPSFRHGGKSSGAPPPS-NH2
modifications: bridge 15-31 via thioacetal
B16: Example 68 (peptide)
peptide: {C20 diacid}-[γGlu]EKEKEKGS[4Pal]RRSSCFGGRIDRIGHQSGLGCPSFRHGGPPS[Aib]KPPPK-NH2
modifications: bridge 15-31 via thioacetal
B17: Example 67 (peptide)
peptide: {C20 diacid}-[γGlu]EKEKEKGS[4Pal]RRSSCFGGRIDRIGHQSGLGCPSFRHGGKSSGAPPPS-NH2
modifications: bridge 15-31 via thioacetal
B18: Example 84 (peptide)
peptide: SXRRSSCFGGRIDRIGHQSGLGCPSFRHGGPPSXKPPPK
modifications: HOOC-(CH2)18-CO-(γGlu)-EKEKEKG-PEG24-S-4Pal-RRSS[CFGGRIDRIGHQSGLGC]PSFRHGGPPS-Aib-KPPPK-NH2; thioacetal linkage between the bracketed Cys

Experiments:
human NPRA = target: T1, human NPRA; assay: cell-based or functional assay
rat NPRA = target: T2, rat NPRA; assay: cell-based or functional assay

Row | Binder | cGMP Assay (EC50, pM) w/BSA (human NPRA) | cGMP Assay (EC50, pM) w/Casein (human NPRA) | cGMP Assay (EC50, pM) w/BSA (rat NPRA) | cGMP Assay (EC50, pM) w/Casein (rat NPRA)
1 | B1 | 6180 pM | 813 pM | 519000 pM | 22500 pM
2 | B2 | 4580 pM | 273 pM | 261000 pM | 3440 pM
3 | B3 | 5710 pM | 388 pM | 127000 pM | 1910 pM
4 | B4 | 4750 pM | 234 pM | 364000 pM | 3550 pM
5 | B5 | 171000 pM | 1590 pM | 1.13e+06 pM | 5820 pM
6 | B6 | 61400 pM |  | 804000 pM | 
7 | B7 | 92500 pM | 1840 pM | 712000 pM | 11800 pM
8 | B8 | 46400 pM | 588 pM | 1.07e+06 pM | 40500 pM
9 | B9 | 79900 pM | 2620 pM | 607000 pM | 8280 pM
10 | B10 | 17000 pM | 1060 pM | 533000 pM | 23800 pM
11 | B11 | 32600 pM | 623 pM | 836000 pM | 25400 pM
12 | B12 | 38400 pM | 1040 pM | 860000 pM | 16700 pM
13 | B13 | 25200 pM | 1020 pM | 868000 pM | 17900 pM
14 | B14 |  | 594 pM | 594000 pM | 21000 pM
15 | B15 | 5820 pM | 1230 pM | 76400 pM | 26000 pM
16 | B16 |  | 924 pM | 1.28e+06 pM | 12100 pM
17 | B17 | 139000 pM | 1220 pM | 1.55e+06 pM | 18800 pM
18 | B18 | 9730 pM | 1010 pM | 547000 pM | 24600 pM
